Substitutions are numbered along the chain they refer to. Numbers in names are those of the source. Values belong to the molecule of their own block, whether it stands above or below them.
Assays:
human FXa = target: T1, human FXa (Homo sapiens, UniProt P00742); experiment: FXa-inhibiting activity (synthetic substrate S-2222); type: biochemical; conditions: concentration expressed as bovine trypsin-inhibiting activity; for FXa-inhibiting activity, times higher than that of polypeptide AN68: relative to control AN68; for FXa-inhibiting activity, times higher than that of polypeptide TN70: relative to control TN70
T1 construct: purchased American Diagnostica Inc
T1 sequence (P00742 235-488 limits assumed): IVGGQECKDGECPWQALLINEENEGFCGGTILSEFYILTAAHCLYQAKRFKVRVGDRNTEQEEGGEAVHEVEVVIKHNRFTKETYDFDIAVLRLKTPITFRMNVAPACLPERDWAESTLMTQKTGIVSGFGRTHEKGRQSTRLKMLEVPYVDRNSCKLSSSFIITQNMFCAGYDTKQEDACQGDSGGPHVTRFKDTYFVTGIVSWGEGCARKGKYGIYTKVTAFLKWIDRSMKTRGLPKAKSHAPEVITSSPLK
T1 sequence (P00742 41-179 partner limits assumed): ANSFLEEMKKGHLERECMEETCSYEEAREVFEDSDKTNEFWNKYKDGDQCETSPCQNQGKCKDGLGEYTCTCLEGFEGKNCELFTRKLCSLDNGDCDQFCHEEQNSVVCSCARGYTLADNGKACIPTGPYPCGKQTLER
Experimental: The purified polypeptide of the present invention was dissolved in 100 μl of distilled water. Polypeptide concentration of this solution was determined based on its bovine trypsin-inhibiting activity measured in accordance with the above procedure (1) using the aforementioned UTI as a standard. The thus prepared solution was then diluted to various concentration levels with 0.1% BSA/150 mM NaCl/5 mM CaCl2 /50 mM Tris-HCl buffer (pH 8.3) for use in the activity measurement. Separately from this, a polypeptide TN70 (cf. Japanese Patent Application No. 3-325220) and polypeptide AN68 were purified respectively in accordance with the procedure of Example 2(4) from a culture supernatant of E. coli JE5505(pM552) (deposit No., FERM BP-3561) and E. coli JE5505(pM594) obtained by transforming E. coli JE5505 with the aforementioned plasmid pM594 obtained in Example 4. The thus purified polypeptide TN70 and AN68 were diluted to various concentration levels to be used as control solutions.
Using a synthetic compound S-2222 (Daiichi Pure Chemicals Co., Ltd.) as a substrate, FXa-inhibiting activities in the thus prepared test sample solution and control solution were measured in accordance with the method of Ohno et al. (Ohno H. et al., Thromb. Res., vol.19, pp.579-588, 1980) as follows. First, human FXa (American Diagnostica Inc.) was dissolved in distilled water to a final concentration of 10 PEU/ml and the solution was further diluted with the aforementioned 0.1% BSA/150 mM NaCl/5 mM CaCl2 /50 mM Tris-HCl buffer (pH 8.3) to prepare 0.1 PEU/ml of FXa solution. Separately from this, a 4 mM solution of S-2222 was prepared by dissolving it in distilled water and the solution was further diluted with the 0.1% BSA/150 mM NaCl/5 mM CaCl2 /50 mM Tris-HCl buffer (pH 8.3) to obtain a 2 mM solution of S-2222.
Next, 25 μl of the test sample or control solution was mixed with 100 μl of the 0.1% BSA/150 mM NaCl/5 mM CaCl2 /50 mM Tris-HCl buffer (pH 8.3) and 25 μl of the FXa solution. After incubating statically at 37° C. for 10 minutes, 100 μl of the S-2222 solution was added to start the reaction. The reaction was carried out at 37° C. for 30 minutes and then stopped by adding 50 μl of 50% acetic acid solution to the reaction mixture. Thereafter, absorbance at a wavelength of 405 nm was measured using a spectrophotometer. In this instance, in order to eliminate absorbancy of various contents in the reaction mixture other than the reaction product, a blank solution was prepared by mixing 25 μl of the FXa solution with 50 μl of 50% acetic acid and then with 25 μl of each test sample or the control solution, 100 μl of the 0.1% BSA/150 mM NaCl/5 mM CaCl2 /50 mM Tris-HCl buffer (pH 8.3) and with 100 μl of the S-2222 solution.
The results are shown in FIG. 45 to FIG. 53 and FIG. 66. In these figures, polypeptide concentration in the reaction solution was expressed as its bovine trypsin-inhibiting activity. Also, residual human FXa activity was expressed by percentage based on the absorbance of a control reaction mixture in which 25 μl of the 0.1% BSA/150 mM NaCl/5 mM CaCl2 /50 mM Tris-HCl buffer (pH 8.3) was used instead of the test sample.

human trypsin = target: T2, human trypsin (Homo sapiens, UniProt P07477); experiment: Human trypsin-inhibiting activity (synthetic substrate S-2444); type: biochemical; conditions: purified polypeptide, various concentration levels
T2 construct: purchased Calbiochem
Experimental: The purified polypeptide of the present invention was dissolved in 100 μl of distilled water. Concentration of polypeptide in the thus prepared solution was determined based on its bovine trypsin-inhibiting activity measured in accordance with the above procedure (1) using UTI (Mochida Pharmaceutical Co., Ltd.; cf. H. Ohnishi et al., Nippon Yakurigaku Zasshi, vol.85, pp.1-6, 1985) as a standard. The polypeptide solution was then diluted to various concentration levels with 0.03% BSA/0.2M triethanolamine-HCl buffer (pH 7.8) for use in the activity measurement. Separately from this, human trypsin (Calbiochem) was dissolved in 1 mM HCl to a concentration of 1,000 SU/ml and the solution was further diluted with the 0.03% BSA/0.2M triethanolamine-HCl buffer (pH 7.8) to prepare a 1.25 SU/ml solution of human trypsin. Thereafter, human trypsin-inhibiting activity was measured in the same manner as described in the above procedure (1) using the aforementioned synthetic substrate S-2444. Separately from this, polypeptide AN68 (sequence described in Example 17(3)) was diluted to various concentration levels. Thereafter, human trypsin-inhibiting activity was measured in the same manner as described in the above procedure (1) and compared with the trypsin-inhibiting activity of the novel polypeptide of the present invention.

Bovine trypsin = target: T3, Bovine trypsin (Bos taurus, UniProt P00760); experiment: Bovine trypsin-inhibiting activity (synthetic substrate S-2444); type: biochemical; conditions: purified polypeptide, serially diluted
T3 construct: purchased Sigma Chemical Co. Type XIII
T3 sequence (P00760 24-246): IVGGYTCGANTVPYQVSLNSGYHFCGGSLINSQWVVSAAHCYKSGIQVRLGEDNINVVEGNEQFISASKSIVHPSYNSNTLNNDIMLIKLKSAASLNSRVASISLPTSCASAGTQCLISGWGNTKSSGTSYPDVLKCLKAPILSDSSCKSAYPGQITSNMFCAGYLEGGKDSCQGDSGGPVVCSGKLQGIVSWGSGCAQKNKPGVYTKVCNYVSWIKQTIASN
Experimental: The purified polypeptide of the present invention was dissolved in 100 μl of distilled water, and the solution was serially diluted with a 0.1% BSA/0.2M triethanolamine-HCl buffer (pH 7.8) for use in the activity measurement. Measurement of the trypsin-inhibiting activity in the thus prepared test sample was carried out in accordance with the Kassell's method (Kassell, B. et al., Methods in Enzymology, vol.19, pp.844-852, 1970) using a synthetic substrate S-2444 (Daiichi Pure Chemicals Co., Ltd.).
Bovine trypsin (Type XIII, Sigma Chemical Co.) was dissolved in 0.001M HCl to a final concentration of 13,600 BAEEU/ml and the solution was further diluted with 0.1% BSA/0.2M triethanolamine-HCl buffer (pH 7.8) to prepare 1.2 BAEEU/ml of trypsin solution. Separately from this, 2 mM solution of the synthetic substrate S-2444 was prepared by dissolving it in distilled water. Next, 100 μl of the test sample was mixed with 100 μl of the trypsin solution. After incubating statically at 37° C. for 10 minutes, 50 μl of the S-2444 solution was added to start the reaction. The reaction was carried out at 37° C. for 15 minutes and then stopped by adding 50 μl of 50% acetic acid solution to the reaction mixture. Thereafter, absorbance at a wavelength of 405 nm was measured using a spectrophotometer. In this instance, in order to eliminate absorbancy of various contents in the reaction mixture other than the reaction product, a blank solution was prepared by mixing 100 μl of the bovine trypsin solution with 50 μl of 50% acetic acid and then with 100 μl of each test sample and 50 μl of the S-2444 solution.

[1] = target: activated blood coagulation factor X (FXa) (Homo sapiens, UniProt P00742); conditions: background statement; cited from earlier work
Sequence of activated blood coagulation factor X (FXa) (P00742 235-488 limits assumed): as the sequence (P00742 235-488 limits assumed) above
Sequence of activated blood coagulation factor X (FXa) (P00742 41-179 partner limits assumed): as the sequence (P00742 41-179 partner limits assumed) above

FXa-inhibiting activity, times higher than that of polypeptide AN68 (human FXa): about ten
Molecule: Q19K/Y46E: formula 1 sequence with Lys for position 15 Gln and Glu for position 42 Tyr; SEQ. I.D. NO. 8; plasmid pM736 (AACNLPIVRGPCRAFIKLWAFDAVKGKCVLFPYGGCQGNGNKFESEK)
human trypsin inhibition (human trypsin): can inhibit human trypsin in a concentration-dependent manner
bovine trypsin inhibition (Bovine trypsin): can inhibit bovine trypsin in a concentration-dependent manner

FXa-inhibiting activity, times higher than that of polypeptide AN68 (human FXa): about ten
Molecule: Q19R/Y46E: formula 1 sequence with Arg for position 15 Gln and Glu for position 42 Tyr; SEQ. I.D. NO. 16; plasmid pM737B (AACNLPIVRGPCRAFIRLWAFDAVKGKCVLFPYGGCQGNGNKFESEK)
human trypsin inhibition (human trypsin): can inhibit human trypsin in a concentration-dependent manner
bovine trypsin inhibition (Bovine trypsin): can inhibit bovine trypsin in a concentration-dependent manner

Molecule: polypeptide of formula 1: unsubstituted parent polypeptide whose sequence coincides with a part of UTI or Bikunins (HI-30) (CNLPIVRGPCRAFIQLWAFDAVKGKCVLFPYGGCQGNGNKFYSEKECREYC) [reference compound]
FXa-inhibiting activity [1]: high FXa-inhibiting activity

FXa-inhibiting activity, times higher than that of polypeptide TN70 (human FXa): about five
Molecule: Q19K: formula 1 sequence with Lys for position 15 Gln; amino acids 1-70 of SEQ. I.D. NO. 4; plasmid pM576 (DDAACNLPIVRGPCRAFIKLWAFDAVKGKCVLFPYGGCQGNGNKFYSEK)
human trypsin inhibition (human trypsin): can inhibit human trypsin in a concentration-dependent manner
bovine trypsin inhibition (Bovine trypsin): can inhibit bovine trypsin in a concentration-dependent manner

Molecule: Q19K-AN: formula 1 sequence with Lys for position 15 Gln; amino acids 1-68 of SEQ. I.D. NO. 14; plasmid pM576B (AACNLPIVRGPCRAFIKLWAFDAVKGKCVLFPYGGCQGNGNKFYSEK)
human trypsin inhibition (human trypsin): can inhibit human trypsin in a concentration-dependent manner
bovine trypsin inhibition (Bovine trypsin): can inhibit bovine trypsin in a concentration-dependent manner

Molecule: Y46E-AN: formula 1 sequence with Glu for position 42 Tyr; amino acids 1-68 of SEQ. I.D. NO. 12; plasmid pM575C (MKQSTIALALLPLLFTPVTKA)
human trypsin inhibition (human trypsin): can inhibit human trypsin in a concentration-dependent manner
bovine trypsin inhibition (Bovine trypsin): can inhibit bovine trypsin in a concentration-dependent manner

FXa-inhibiting activity, times higher than that of polypeptide TN70 (human FXa): about seven
Molecule: Y46E: formula 1 sequence with Glu for position 42 Tyr; amino acids 1-70 of SEQ. I.D. NO. 2; from plasmid pM575B (TVAACNLPIVRGPCRAFIQLWAFDAVKGKCVLFPYGGCQGNGNKFESEK)
human trypsin inhibition (human trypsin): can inhibit human trypsin in a concentration-dependent manner
bovine trypsin inhibition (Bovine trypsin): can inhibit bovine trypsin in a concentration-dependent manner

FXa-inhibiting activity, times higher than that of polypeptide AN68 (human FXa): about six
Molecule: Q19R: formula 1 sequence with Arg for position 15 Gln; amino acids 1-68 of SEQ. I.D. NO. 6; plasmid pM735 (AACNLPIVRGPCRAFIRLWAFDAVKGKCVLFPYGGCQGNGNKFYSEK)
human trypsin inhibition (human trypsin): can inhibit human trypsin in a concentration-dependent manner
bovine trypsin inhibition (Bovine trypsin): can inhibit bovine trypsin in a concentration-dependent manner

FXa-inhibiting activity, times higher than that of polypeptide AN68 (human FXa): about three
Molecule: R11E/Y46E: formula 1 sequence with Glu for position 7 Arg and Glu for position 42 Tyr; SEQ. I.D. No. 10; plasmid pM726B (AACNLPIVEGPCRAFIQLWAFDAVKGKCVLFPYGGCQGNGNKFESEK)
human trypsin inhibition (human trypsin): can inhibit human trypsin in a concentration-dependent manner
bovine trypsin inhibition (Bovine trypsin): can inhibit bovine trypsin in a concentration-dependent manner

FXa-inhibiting activity, times higher than that of polypeptide AN68 (human FXa): about 18 times
B1: Q19R/Y46D: formula 1 sequence with Arg for position 15 Gln and Asp for position 42 Tyr; SEQ. I.D. NO. 36; plasmid pM744 (protein)
chain: AACNLPIVRGPCRAFIRLWAFDAVKGKCVLFPYGGCQGNGNKFDSEKECREYCGVPGDGDEELLRFSN
human trypsin inhibition (human trypsin): can inhibit human trypsin in a concentration-dependent manner
bovine trypsin inhibition (Bovine trypsin): can inhibit bovine trypsin in a concentration-dependent manner

FXa-inhibiting activity, times higher than that of polypeptide AN68 (human FXa): about twenty
B2: Q19K/Y46D: formula 1 sequence with Lys for position 15 Gln and Asp for position 42 Tyr; SEQ. I.D. NO. 35; plasmid pM727 (protein)
chain: B1 chain with R17K
human trypsin inhibition (human trypsin): can inhibit human trypsin in a concentration-dependent manner
bovine trypsin inhibition (Bovine trypsin): can inhibit bovine trypsin in a concentration-dependent manner

Source: patent US5679770A, “Polypeptide, DNA fragment encoding the same, drug composition containing the same and process for producing the same” (Mochida Pharmaceutical Co., Ltd., priority 1991, dated 1997)
